Measured values as given in PMC3942486, “The Ansamycin Antibiotic, Rifamycin SV, Inhibits BCL6 Transcriptional Repression and Forms a Complex with the BCL6-BTB/POZ Domain” (PLoS ONE, 2014).

Target: BCL6-POZ domain (residues 7 to 128 of human BCL6, C8Q, C67R, C84N) (UniProt P41182)
Test: fluorescence polarisation

Kd	Substance
43 µM	wild-type SMRT peptide, labelled with BODIPY TMR H1426(homophenylalanine)
41 µM	wild-type SMRT peptide, labelled with BODIPY TMR H1426(styrylalanine)
